Experimental data from publication PMC4358366, “Identification of ‘erasers’ for lysine crotonylated histone marks using a chemical proteomics approach” (eLife, 2014).

Molecular target: T1, Sirt3 F180L (Homo sapiens, UniProt Q9NTG7, F180L)
T1 construct: His tag (from pTrcHis 2C vector; nickel column purification); made in house; host or cells: E. coli Rosetta
T1 sequence (Q9NTG7 102-399 F180L): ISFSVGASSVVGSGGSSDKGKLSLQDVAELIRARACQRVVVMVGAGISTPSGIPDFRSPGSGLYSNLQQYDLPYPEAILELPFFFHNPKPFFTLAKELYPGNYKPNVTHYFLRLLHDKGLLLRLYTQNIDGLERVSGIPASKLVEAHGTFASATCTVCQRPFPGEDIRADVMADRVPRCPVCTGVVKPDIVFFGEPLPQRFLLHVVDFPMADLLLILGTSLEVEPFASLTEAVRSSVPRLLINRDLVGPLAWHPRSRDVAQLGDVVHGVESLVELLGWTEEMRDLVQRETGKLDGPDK
Assay: Steady state kinetics of deacetylation by Sirt3 F180L mutant
Type: biochemical
Details: F180L vs wild-type Sirt3 (H3K4Ac, Figure 4—figure supplement 6)
Description: Plasmids of Sirt1 (193–747), Sirt2 (36–356), Sirt5 (34–302), and Sirt6 (1–314) for Escherichia coli expression were generated as previously described ([Finnin et al., 2001]; [Du et al., 2011]; [Hubbard et al., 2013]; [Jiang et al., 2013]). […] Sirt3 mutant F180L was generated by site directed mutagenesis. All of the proteins were expressed in E. coli Rosetta cells. To induce expression of target proteins, isopropyl β-D-1-thiogalactopyranoside was added to a final concentration of 0.2 mM when OD600 reached 0.6, and the culture was grown at 15 °C (Sirt3 at 25 °C) for 16–18 hr. Cells were harvested and resuspended in lysis buffer A (50 mM Tris–HCl, pH 7.5, 500 mM NaCl, 1 mM PMSF, and Roche EDTA free protease inhibitors, for Sirt1, Sirt2, and Sirt6) or buffer B (50 mM Tris–HCl, pH 7.5, 150 mM NaCl, 1 mM PMSF, and Roche EDTA free protease inhibitors, for Sirt3 and Sirt5). […]
Enzyme was incubated with different concentrations of corresponding peptides bearing two tryptophans at the C terminus (20, 40, 60, 80, 100, 200, and 500 μM) and 1.0 mM NAD in 20 mM Tris–HCl buffer (pH 7.5) containing 1 mM DTT in 25 μL reaction at 37°C for a certain period of time within the initial linear range. […] Samples were then analyzed by HPLC with a Vydac 218TP C18 column (4.6 mm×250 mm, 5 μm; Grace Davison). […]

B1: Sirt3 F180L: Sirt3 mutant with Phe180 mutated to leucine (protein, UniProt Q9NTG7 1-399, looked up, variant F180L)
chain: MAFWGWRAAAALRLWGRVVERVEAGGGVGPFQACGCRLVLGGRDDVSAGLRGSHGARGEPLDPARPLQRPPRPEVPRAFRRQPRAAAPSFFFSSIKGGRRSISFSVGASSVVGSGGSSDKGKLSLQDVAELIRARACQRVVVMVGAGISTPSGIPDFRSPGSGLYSNLQQYDLPYPEAILELPFFFHNPKPFFTLAKELYPGNYKPNVTHYFLRLLHDKGLLLRLYTQNIDGLERVSGIPASKLVEAHGTFASATCTVCQRPFPGEDIRADVMADRVPRCPVCTGVVKPDIVFFGEPLPQRFLLHVVDFPMADLLLILGTSLEVEPFASLTEAVRSSVPRLLINRDLVGPLAWHPRSRDVAQLGDVVHGVESLVELLGWTEEMRDLVQRETGKLDGPDK
decrease in deacetylation activity caused by F180L mutation: about a two-fold decrease
